Experimental findings from PMC11462610, “PpBBX32 and PpZAT5 modulate temperature-dependent and tissue-specific anthocyanin accumulation in peach fruit” are described below.

Data set [1] deals with T1, PpBBX32 (Prunus persica, UniProt A0A251PTV0 1-264).
T1 sequence: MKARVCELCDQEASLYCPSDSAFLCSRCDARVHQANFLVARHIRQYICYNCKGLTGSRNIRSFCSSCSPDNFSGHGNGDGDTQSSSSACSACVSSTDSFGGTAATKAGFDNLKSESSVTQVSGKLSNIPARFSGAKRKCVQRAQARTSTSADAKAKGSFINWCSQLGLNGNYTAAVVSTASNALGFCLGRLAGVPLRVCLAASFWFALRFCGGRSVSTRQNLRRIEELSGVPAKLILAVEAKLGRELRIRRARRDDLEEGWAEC
Briefly: EMSA; shift weakened by increasing cold probe; LightShift Chemiluminescent EMSA kit (Thermo), biotin-labeled probes; buffer, salt, pH and temperature not stated. The settings on record: protein: recombinant; tags: N-terminal His-trigger factor (pColdTF fusion); label: biotin; blunt. (Mobility shift assays separate free from complexed probe on a gel.)

The target in data set [2] is T2, PpZAT5 (Prunus persica, UniProt A0A251NAP4 1-283).
T2 sequence: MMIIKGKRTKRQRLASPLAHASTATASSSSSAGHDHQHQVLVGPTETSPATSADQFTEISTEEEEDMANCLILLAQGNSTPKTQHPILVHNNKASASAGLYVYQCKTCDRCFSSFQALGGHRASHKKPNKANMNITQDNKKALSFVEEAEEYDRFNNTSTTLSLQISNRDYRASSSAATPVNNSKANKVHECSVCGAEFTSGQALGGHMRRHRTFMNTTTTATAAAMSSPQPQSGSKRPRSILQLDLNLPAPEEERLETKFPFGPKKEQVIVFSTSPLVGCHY
Briefly: EMSA; LightShift Chemiluminescent EMSA kit (Thermo), biotin-labeled probes; buffer, salt, pH and temperature not stated. The settings on record: protein: recombinant; tags: N-terminal His-trigger factor (pColdTF fusion); blunt.

Data set [3] addresses T2, PpZAT5. Briefly: EMSA; shift weakened by increasing cold probe; LightShift Chemiluminescent EMSA kit (Thermo), biotin-labeled probes; buffer, salt, pH and temperature not stated. The conditions noted are these: protein: recombinant; tags: N-terminal His-trigger factor (pColdTF fusion); label: biotin; blunt.

B1: proPpMYB10.1 G-box1&2 (dsDNA)
DNA 1: CAGCTGTGATACGTGAACCACACGTGCTGACACTA
DNA 2: TAGTGTCAGCACGTGTGGTTCACGTATCACAGCTG
Take B1: the binding result in data set [1] is on record as “binds”.

B2: proPpMYB10.1 ACT core element 7 mutant (dsDNA)
DNA 1: TCTTAGCTAGTTACCCTAGTTATCAAG
DNA 2: CTTGATAACTAGGGTAACTAGCTAAGA
As for B2, in data set [2], the binding result is “no binding”.

B3: proPpMYB10.1 ACT core element 7 (dsDNA)
DNA 1: TCTTAGCTAACTGTTACTGTTATCAAG
DNA 2: CTTGATAACAGTAACAGTTAGCTAAGA
Take B3: the binding result in data set [3] was “binds”.
